Amyloid nucleation score data for 131 substances are collected here from the supplement of paper PMC12042874.

± gives the uncertainty stated by the source.

This series can be described thus: amyloid nucleation score (Sup35N fusion, yeast selection) (log enrichment); library NNK3; higher = more nucleation; inactive = no reads after selection. Summed up: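 After 24 hours of induction with 100 μM copper sulfate, psi-negative yeast expressing peptides of 20 random codons fused to Sup35N were grown for 7 days at 30°C on medium lacking adenine and uracil. Input and output plasmid inserts were sequenced with Illumina, and sequences with under 100 input reads were discarded. Scores for nucleation are the DiMSum log enrichment of output over input reads, centred on the mode score of non-aggregating sequences.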
For the substance TLLRHVNNDGGSVSLGTMLA, the amyloid nucleation score result is “inactive”.
The substance MFQPFYFHNFYISCKLA returned an amyloid nucleation score of 1.95 ± 0.092.
For NNNISFEEWFPS the value was “inactive”; for SSCKWLFTSSHPSHPEAS, “inactive”.
For IKLVDLPCSLVNTGSTVNRE the value was “inactive”; for WLKAEGWIIILSSATRPG, “inactive”; for LNKLEVNDVSIGYVNCTLFK, “inactive”.
For IISCYTNKMIVVTWCYPLRR the value was 0.116 ± 0.19; for YMLWDDMVEKYHCLSQRLGR, “inactive”; for AFTCYELAGIWRNVTVPCYL, “inactive”.
As to CGNTSIV, the amyloid nucleation score entry is “inactive”.
For CLVGPVHPMFVL the value was “inactive”.
For SHHSHSNDVALGSSISF the value was “inactive”; for TTKQKV, “inactive”; for GFTAGRFPCGSFWLGSCCWY, 0.231 ± 0.36.
For TRLSSFRKIKEIYLLTQWKP the value was “inactive”.
Regarding VSYLVCIDWVCPSGQWNAFW, the amyloid nucleation score turned out to be 1.52 ± 0.11.
IKFHW: the amyloid nucleation score result is “inactive”.
For CQVSCFNLVSIKSWDKIAGS the value was 2.52 ± 0.06.
Turning to YMEAC, the amyloid nucleation score entry is “inactive”.
For TINIQCALGMNQT the value was 1.17 ± 0.11.
For FLSCCKGCLCCCQRPLSIYY the value was “inactive”.
For IHLTCLWVYQDLLV the value was “inactive”.
Take WCYDDGQA: the amyloid nucleation score result was “inactive”.
For CDLMAKGSCIEQPQPSVAGK the value was “inactive”.
For PTVQCC the value was “inactive”; for NYYSGMRLSQNKKTST, 0.701 ± 0.11; for LLPLFHNVIIGNCLFGCEPP, 1.62 ± 0.11.
With AVLEMQLTIW, the amyloid nucleation score entry was “inactive”.
For QFLKGDCRYLDPGMDLDRG the value was “inactive”; for RPTGYQVTYEMRRSGG, “inactive”; for NIMYLIWWILGKRHVCNPWE, -0.805 ± 1.1.
Turning to MRYVHRCSRWYLLQQLLRIH, the amyloid nucleation score result is “inactive”.
For MQFEINRRVGHRSPNAYLE the value was “inactive”; for NLSGIHIFLVSRLEWVLDNL, “inactive”; for YFNYSLFISVCS, “inactive”.
In turn, LRLTIMSGIRVPVFYEHSFM showed an amyloid nucleation score of -0.443 ± 0.96.
For CPLLSGFDESWDVEYDAQGD the value was “inactive”; for AYIMDSSWWV, “inactive”; for SCFISSMYFASWKFRISNGV, “inactive”.
For CLVVKLFHTSSCMNSYMRGG the value was 1.67 ± 0.11.
Take PYMWGFIKRWNRNCAGSFAL: the amyloid nucleation score entry was “inactive”.
For YIMSNLFGGNNLFGG the value was “inactive”; for CEVGQCQGYVELLSYIHYNS, “inactive”.
For HQTLKSQD the value was “inactive”.
For FFNVELLMIDCGFYEFHTDD the value was 2.1 ± 0.056; for FLILVGLGRIDLMGTIIKKR, “inactive”; for DRCGVFNTPYLVNSELILC, “inactive”.
As to LADLNTTNIVIGQCCFFYRL, the amyloid nucleation score is 2.55 ± 0.076.
Substance SSFLWTVWGFSNNPCCSSVA came in with an amyloid nucleation score of 2.46 ± 0.051.
In turn, GYLLRFMCCNCIPSTEIMIE came in with an amyloid nucleation score of 2.73 ± 0.056.
For RGFLVRWAPFCLGFGSTLND the value was “inactive”; for QRFFRCIRSRSWTFTSGVIV, “inactive”; for TIFMWCV, 1.64 ± 0.097.
For GFVIYLNVALLVRSNINRVC the value was “inactive”.
For ATCLLIGFGPWMSPAG the value was “inactive”; for GNSIALSE, “inactive”; for VRESAWGLYNRYFSVFSAVV, “inactive”.
As for IEVVYNLFWSRTFGAFVTKV, the amyloid nucleation score entry is “inactive”.
Consider ALARELIFLLCMNVRLMGFK, for which the amyloid nucleation score entry is “inactive”.
For CAFPVDGRGTIVVFRHVLEG the value was “inactive”; for NKDWREVCSKLNLGSCPTPE, “inactive”; for GYCNESTVWYDS, “inactive”.
The substance YWDVNQGVYGINYGTVSHS yielded an amyloid nucleation score of 0.256 ± 0.43.
CIFMRIYGVC: the amyloid nucleation score entry is “inactive”.
For HRYYYFF the value was 1.83 ± 0.093.
For ICSGTSH the value was -0.268 ± 0.6; for MFQGHMSWII, “inactive”.
For the substance QVILHHMADKKAFISTSSSS, the amyloid nucleation score was found to be 1.52 ± 0.074.
KGHCQAVGLKEEKPR: the amyloid nucleation score entry was “inactive”.
For KARANFVYAKFHFTRAP the value was “inactive”.
For CYQSLECAIMGYGLYVYSWC the value was “inactive”; for SRALDGYKVPRFWIVRARGR, “inactive”; for YFATRDFAWVFENGSIEGAT, “inactive”.
For GDLVLASAGYLVFGYLL the value was “inactive”.
Consider RCYVRFSRSRVVHIMLVYMP, for which the amyloid nucleation score entry is “inactive”.
For NLLRNAVFIYCKHLNLFDAM the value was 0.815 ± 0.12.
For RMLMIMVACVGTYDSSN the value was “inactive”.
For LRMVTHMSVYDRNHLSW the value was “inactive”; for CVVELHHVCRVPMCPFCWTV, “inactive”.
In turn, SIHCIYSWR came in with an amyloid nucleation score of 1.27 ± 0.12.
For SRCPMADCMRKPRGGCSVGR the value was “inactive”; for KKVISSCFYRVCVSSPAGSV, “inactive”; for PGRGLMRLYCYRFEIKTTEP, 0.82 ± 0.23.
For TCLLRQCWNNVMS the value was “inactive”; for QINSSLDMMRHTFCSEGYAV, “inactive”; for VVHSGWKSLDNLPHLRDVVT, “inactive”.
For VFTPLCAYVVGYLYEVCGDD the value was “inactive”; for VFNFFYAEMGLMIKFWIDNL, 1.08 ± 0.081; for FFTRSNVLRSVCFSSPITLW, “inactive”.
The substance TIQCMCFCSNRVLTIIVQLS registered an amyloid nucleation score of -0.61 ± 0.75.
For ESPAASMVLHRGRLVVCSLS the value was “inactive”; for YWFIAQAYKGRCVGSTVDKR, “inactive”; for VEHFNGHTRTVGCLFKRDLR, “inactive”.
Regarding SNSHVTKDLGVCRGLATCRG, the amyloid nucleation score result is “inactive”.
As for HNILFSDLGFYRSYYNADSM, the amyloid nucleation score result was “inactive”.
For FYKRLSMSMIWFLLYLCTDM the value was “inactive”; for PRNRSVGKMLTRINNSFSRA, “inactive”.
For LQFNISYRMFSEVCVFLLVW the value was “inactive”; for GCYIVM, “inactive”.
For ILYSGVIILYSFYIRRPMVL the value was “inactive”.
For RGKFHRVA, the amyloid nucleation score entry was “inactive”.
For RSANLICLSPLSIIIRDKTL the value was “inactive”; for MRPVT, “inactive”; for NSGIFFLVMTSKLNAVLCLA, “inactive”.
Take YNSSTTVIDFTF: the amyloid nucleation score result is “inactive”.
For VLIYDVCCALNLCCGFRTFG the value was 1.77 ± 0.081; for TSSWYFILDVHCGSEGNSEA, 0.438 ± 0.28.
For RACCLFQGDWQERLDSISFA the value was “inactive”; for WGQCNELTMFFRFFLTFYIA, “inactive”.
For VYVWSG the value was “inactive”; for WFDNRGLSFPYVYLLREHGK, 1.13 ± 0.11; for SHNGLKTLNGSFLAYLSCRA, 0.904 ± 0.16.
Regarding WVYNGIIYGRLFMDLLWTGL, the amyloid nucleation score result was “inactive”.
Turning to DSQVSTTGVMEDRYLPILCF, the amyloid nucleation score result was “inactive”.
For IIEPYTFCFRICVWGGEWIV the value was “inactive”.
For LFKKVDTWSYLHGDTMLRGI the value was “inactive”; for SSKMLTLMWMVGPPLSTDGS, “inactive”; for AYLSSTSANF, “inactive”.
With YGYVIPSSQLPSWTLQRY, the amyloid nucleation score result was “inactive”.
For TVMLRRTRYVVYTVYRVVDV the value was “inactive”.
For ASSSQGRDYVCMSYNFIGGV the value was -0.551 ± 0.55.
As to VEAEHYSRRNEKVFRSNMKW, the amyloid nucleation score result is “inactive”.
For NWIRS the value was “inactive”; for DFGSDSVDRIPRTGADNSI, “inactive”.
For FNSAHDQAAQVRHLHVNVFL the value was 3 ± 0.064; for QCSDVLYY, “inactive”; for VYIVSDTRMATASFG, -0.773 ± 1.3.
For TLLIRCYPYIMLYRFAASTD the value was “inactive”.
As to RCDCEFYTLKWQCEVYYRGR, the amyloid nucleation score result is “inactive”.
For ELVYDLDRYDGGLGVKNEEW the value was “inactive”.
